According to publication PMC11156922, “PDZ2-conjugated-PLGA nanoparticles are tiny heroes in the battle against SARS-CoV-2” (Scientific Reports, 2024):
No end group written: not given here. *: point of attachment. Biotin = O=C1N[C@H]2[C@H](CS[C@H]2CCCCC(=O)*)N1

T1: C-terminal portion of the SARS-CoV-2 Envelope protein, N-terminal biotinylated peptide (SARS-CoV-2)
T1 construct: also called SARS-CoV-2 E-protein; E-tetradecapeptide
T1 peptide: Biotin-VKNLNSSRVPDLLV


How the values were obtained:
[1] = molecular target: Envelope protein (SARS-CoV-2) (UniProt P0DTC4); settings: cited from earlier work
[2] = molecular target: T1, C-terminal portion of the SARS-CoV-2 …; assay: SPR; Biacore X100; biotinylated E peptide immobilised on streptavidin SA chip (target 1000 RU); PDZ2-f-NPs as analyte, 0.0625-30 uM in equivalents of protein; 25 C; HBS-EP (10 mM Hepes pH 7.4, 0.15 M NaCl, 3 mM EDTA, 0.05% P20); steady-state affinity model / Scatchard plot of maximum amplitudes; settings: both partners purified

Sequence of ZO1 PDZ2 (Q07157 183-267): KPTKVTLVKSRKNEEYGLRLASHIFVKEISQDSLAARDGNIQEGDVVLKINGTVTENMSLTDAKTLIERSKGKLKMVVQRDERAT

Row | Molecule | Kd [1] [µM] | Kd [2] [µM]
1 | ZO1 PDZ2 (from UniProt Q07157) | 2.1 | –
2 | PDZ2-ZO1 functionalized PLGA-PEG-Bis-sulfone nanoparticles (PDZ2 domain of human ZO-1, His-tagged, conjugated to the nanoparticle surface) (domain or fragment, His-tag chemically linked to the bis-sulfone (PEG-mono-sulfone) moiety of PLGA-PEG nanoparticles) KVTLVKSRKNEEYGLRLASHIFVKEISQDSLAARDGNIQEGDVVLKINGTVTENMSLTDAKTLIERSKGKLKMVVQRDE | – | 0.97 ± 0.31
